In IntAct's records for PubMed 17599067:

B1: Inhibitor of nuclear factor kappa-B kinase subunit epsilon (Homo sapiens), Q14164 (parent)
chain: MQSTANYLWHTDDLLGQGATASVYKARNKKSGELVAVKVFNTTSYLRPREVQVREFEVLRKLNHQNIVKLFAVEETGGSRQKVLVMEYCSSGSLLSVLESPENAFGLPEDEFLVVLRCVVAGMNHLRENGIVHRDIKPGNIMRLVGEEGQSIYKLTDFGAARELDDDEKFVSVYGTEEYLHPDMYERAVLRKPQQKAFGVTVDLWSIGVTLYHAATGSLPFIPFGGPRRNKEIMYRITTEKPAGAIAGAQRRENGPLEWSYTLPITCQLSLGLQSQLVPILANILEVEQAKCWGFDQFFAETSDILQRVVVHVFSLSQAVLHHIYIHAHNTIAIFQEAVHKQTSVAPRHQEYLFEGHLCVLEPSVSAQHIAHTTASSPLTLFSTAIPKGLAFRDPALDVPKFVPKVDLQADYNTAKGVLGAGYQALRLARALLDGQELMFRGLHWVMEVLQATCRRTLEVARTSLLYLSSSLGTERFSSVAGTPEIQELKAAAELRSRLRTLAEVLSRCSQNITETQESLSSLNRELVKSRDQVHEDRSIQQIQCCLDKMNFIYKQFKKSRMRPGLGYNEEQIHKLDKVNFSHLAKRLLQVFQEECVQKYQASLVTHGKRMRVVHETRNHLRLVGCSVAACNTEAQGVQESLSKLLEELSHQLLQDRAKGAQASPPPIAPYPSPTRKDLLLHMQELCEGMKLLASDLLDNNRIIERLNRVPAPPDV
partner: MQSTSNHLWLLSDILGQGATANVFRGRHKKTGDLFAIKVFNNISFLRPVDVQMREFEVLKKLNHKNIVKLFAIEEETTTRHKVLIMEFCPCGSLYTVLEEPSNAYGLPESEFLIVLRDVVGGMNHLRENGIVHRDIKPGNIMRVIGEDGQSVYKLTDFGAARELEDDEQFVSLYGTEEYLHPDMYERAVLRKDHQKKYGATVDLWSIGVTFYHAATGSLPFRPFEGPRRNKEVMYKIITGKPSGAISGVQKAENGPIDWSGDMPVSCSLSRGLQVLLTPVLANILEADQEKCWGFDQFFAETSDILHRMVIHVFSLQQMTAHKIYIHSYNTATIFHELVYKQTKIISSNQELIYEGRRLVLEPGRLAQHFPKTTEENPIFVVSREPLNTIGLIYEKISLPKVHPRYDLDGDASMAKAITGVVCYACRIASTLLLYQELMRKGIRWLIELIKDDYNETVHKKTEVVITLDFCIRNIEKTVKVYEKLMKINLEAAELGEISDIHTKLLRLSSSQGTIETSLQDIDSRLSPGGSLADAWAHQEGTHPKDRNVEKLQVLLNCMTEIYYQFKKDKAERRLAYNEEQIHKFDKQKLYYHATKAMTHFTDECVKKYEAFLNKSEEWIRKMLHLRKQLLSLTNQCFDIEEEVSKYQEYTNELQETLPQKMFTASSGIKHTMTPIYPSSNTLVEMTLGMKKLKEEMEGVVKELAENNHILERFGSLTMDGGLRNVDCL
B2: Serine/threonine-protein kinase TBK1 (Homo sapiens), Q9UHD2 (parent)
chain: B1 partner
partner: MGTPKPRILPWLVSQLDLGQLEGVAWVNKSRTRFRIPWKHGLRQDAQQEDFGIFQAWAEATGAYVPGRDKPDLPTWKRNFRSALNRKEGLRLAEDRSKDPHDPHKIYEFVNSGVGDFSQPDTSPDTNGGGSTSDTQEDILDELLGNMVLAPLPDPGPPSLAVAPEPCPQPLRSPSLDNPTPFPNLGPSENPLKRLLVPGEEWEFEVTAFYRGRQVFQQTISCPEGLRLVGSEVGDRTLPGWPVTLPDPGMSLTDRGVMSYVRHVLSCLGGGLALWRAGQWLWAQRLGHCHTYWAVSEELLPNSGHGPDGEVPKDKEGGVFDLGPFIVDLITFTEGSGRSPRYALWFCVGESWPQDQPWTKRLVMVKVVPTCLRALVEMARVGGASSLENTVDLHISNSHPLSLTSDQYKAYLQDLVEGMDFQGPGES

Variants of: B1
Conditions: with tbk1_human TBK1, Q9UHD2

Q: With L353A as the variant, how does the “effect of a mutation on the interaction” value read?
A: increasing interaction

Q: Which “effect of a mutation on the interaction” value does the source give for F354A here?
A: increasing interaction

Variants of: B2
Conditions: with irf3_human IRF3, Q14653

Q: I353A was tested. Which “effect of a mutation on the interaction” value did it give?
A: disrupting interaction

Q: How did the “effect of a mutation on the interaction” value turn out when L352A was run?
A: disrupting interaction
